Numbered stars: 1 amine (or outer) side, 2 acyl side, 3 side chain; on linkers, the order of the positions; unused ones are H or OH. * marks the point of attachment. C20 diacid = O=C(O)CCCCCCCCCCCCCCCCCCC(=O)*; γGlu = O=C(O)[C@H](CCC(=O)[*:2])N[*:1]
Tests used:
[1] = biological target: T1, human amylin 3(a) receptor (human calcitonin receptor co-expressed with RAMP-3) (human, UniProt P30988 25-474; O60896 24-148, limits assumed); experiment: cell-based or functional assay
T1 sequence (looked up) 1: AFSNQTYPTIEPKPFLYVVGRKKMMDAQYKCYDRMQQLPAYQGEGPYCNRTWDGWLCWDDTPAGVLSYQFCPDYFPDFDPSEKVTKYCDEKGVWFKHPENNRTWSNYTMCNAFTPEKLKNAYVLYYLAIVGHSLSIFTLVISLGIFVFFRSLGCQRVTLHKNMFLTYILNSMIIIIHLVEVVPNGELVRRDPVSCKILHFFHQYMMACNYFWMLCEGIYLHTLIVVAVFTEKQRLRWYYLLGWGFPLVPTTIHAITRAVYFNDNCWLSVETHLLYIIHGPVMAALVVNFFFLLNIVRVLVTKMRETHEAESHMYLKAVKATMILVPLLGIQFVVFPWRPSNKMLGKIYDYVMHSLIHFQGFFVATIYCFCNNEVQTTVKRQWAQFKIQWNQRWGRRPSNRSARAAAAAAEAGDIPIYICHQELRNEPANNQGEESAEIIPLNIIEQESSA
T1 sequence (looked up) 2: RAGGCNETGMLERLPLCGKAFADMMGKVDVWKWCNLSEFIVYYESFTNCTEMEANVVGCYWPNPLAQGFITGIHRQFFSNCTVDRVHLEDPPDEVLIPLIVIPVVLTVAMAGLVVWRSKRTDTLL

[2] = biological target: T2, human calcitonin receptor (human, UniProt P30988 25-474); experiment: cell-based or functional assay
T2 sequence (looked up): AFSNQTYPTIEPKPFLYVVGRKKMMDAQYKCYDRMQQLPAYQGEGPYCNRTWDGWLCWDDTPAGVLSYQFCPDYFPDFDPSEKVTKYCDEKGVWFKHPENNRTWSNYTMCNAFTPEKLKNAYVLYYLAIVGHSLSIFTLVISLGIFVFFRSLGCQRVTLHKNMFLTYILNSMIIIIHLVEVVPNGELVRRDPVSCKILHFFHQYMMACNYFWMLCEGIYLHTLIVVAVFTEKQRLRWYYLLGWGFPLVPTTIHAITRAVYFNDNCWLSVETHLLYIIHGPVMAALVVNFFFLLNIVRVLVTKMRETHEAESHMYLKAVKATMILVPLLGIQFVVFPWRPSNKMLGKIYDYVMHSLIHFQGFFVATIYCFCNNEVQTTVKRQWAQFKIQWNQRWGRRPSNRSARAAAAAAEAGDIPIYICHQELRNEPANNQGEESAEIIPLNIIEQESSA

Binder | hAmylin-R funct. EC50 (pM) [1] | hCTR funct. EC50 (pM) [2]
{C20 diacid-γGlu}-ASELSTAVLGRLSQELHELQTYPRTETGSGTY-NH2 (SMILES CC(C)C[C@H](NC(=O)[C@H](CCCNC(=N)N)NC(=O)CNC(=O)[C@H](CC(C)C)NC(=O)[C@@H](NC(=O)[C@H](C)NC(=O)[C@@H](NC(=O)[C@H](CO)NC(=O)[C@H](CC(C)C)NC(=O)[C@H](CCC(=O)O)NC(=O)[C@H](CO)NC(=O)[C@H](C)NC(=O)CC[C@H](NC(=O)CCCCCCCCCCCCCCCCCCC(=O)O)C(=O)O)[C@@H](C)O)C(C)C)C(=O)N[C@@H](CO)C(=O)N[C@@H](CCC(N)=O)C(=O)N[C@@H](CCC(=O)O)C(=O)N[C@@H](CC(C)C)C(=O)N[C@@H](Cc1c[nH]cn1)C(=O)N[C@@H](CCC(=O)O)C(=O)N[C@@H](CC(C)C)C(=O)N[C@@H](CCC(N)=O)C(=O)N[C@H](C(=O)N[C@@H](Cc1ccc(O)cc1)C(=O)N1CCC[C@H]1C(=O)N[C@@H](CCCNC(=N)N)C(=O)N[C@H](C(=O)N[C@@H](CCC(=O)O)C(=O)N[C@H](C(=O)NCC(=O)N[C@@H](CO)C(=O)NCC(=O)N[C@H](C(=O)N[C@@H](Cc1ccc(O)cc1)C(N)=O)[C@@H](C)O)[C@@H](C)O)[C@@H](C)O)[C@@H](C)O) [[N-terminal(C20 diacid-gGlu), des1, 9V, 15Q, 21Q, 23Y, 30S, 31G, 32T, 33Y]mimylin] | 76 pM | 60 pM
{C20 diacid-γGlu}-ASGLSTAALGRLSTELHELETYPRTETGSGTY-NH2 (SMILES CC(C)C[C@H](NC(=O)CNC(=O)[C@H](CO)NC(=O)[C@H](C)NC(=O)CC[C@H](NC(=O)CCCCCCCCCCCCCCCCCCC(=O)O)C(=O)O)C(=O)N[C@@H](CO)C(=O)N[C@H](C(=O)N[C@@H](C)C(=O)N[C@@H](C)C(=O)N[C@@H](CC(C)C)C(=O)NCC(=O)N[C@@H](CCCNC(=N)N)C(=O)N[C@@H](CC(C)C)C(=O)N[C@@H](CO)C(=O)N[C@H](C(=O)N[C@@H](CCC(=O)O)C(=O)N[C@@H](CC(C)C)C(=O)N[C@@H](Cc1c[nH]cn1)C(=O)N[C@@H](CCC(=O)O)C(=O)N[C@@H](CC(C)C)C(=O)N[C@@H](CCC(=O)O)C(=O)N[C@H](C(=O)N[C@@H](Cc1ccc(O)cc1)C(=O)N1CCC[C@H]1C(=O)N[C@@H](CCCNC(=N)N)C(=O)N[C@H](C(=O)N[C@@H](CCC(=O)O)C(=O)N[C@H](C(=O)NCC(=O)N[C@@H](CO)C(=O)NCC(=O)N[C@H](C(=O)N[C@@H](Cc1ccc(O)cc1)C(N)=O)[C@@H](C)O)[C@@H](C)O)[C@@H](C)O)[C@@H](C)O)[C@@H](C)O)[C@@H](C)O) [[N-terminal(C20 diacid-gGlu), des1, 4G, 15T, 21E, 23Y, 30S, 31G, 32T, 33Y]mimylin] | 54 pM | 18 pM
{C20 diacid}-ASGLSTAALGRLSQELHELQTYPRTETGSGTY-NH2 (SMILES CC(C)C[C@H](NC(=O)CNC(=O)[C@H](CO)NC(=O)[C@H](C)NC(=O)CCCCCCCCCCCCCCCCCCC(=O)O)C(=O)N[C@@H](CO)C(=O)N[C@H](C(=O)N[C@@H](C)C(=O)N[C@@H](C)C(=O)N[C@@H](CC(C)C)C(=O)NCC(=O)N[C@@H](CCCNC(=N)N)C(=O)N[C@@H](CC(C)C)C(=O)N[C@@H](CO)C(=O)N[C@@H](CCC(N)=O)C(=O)N[C@@H](CCC(=O)O)C(=O)N[C@@H](CC(C)C)C(=O)N[C@@H](Cc1c[nH]cn1)C(=O)N[C@@H](CCC(=O)O)C(=O)N[C@@H](CC(C)C)C(=O)N[C@@H](CCC(N)=O)C(=O)N[C@H](C(=O)N[C@@H](Cc1ccc(O)cc1)C(=O)N1CCC[C@H]1C(=O)N[C@@H](CCCNC(=N)N)C(=O)N[C@H](C(=O)N[C@@H](CCC(=O)O)C(=O)N[C@H](C(=O)NCC(=O)N[C@@H](CO)C(=O)NCC(=O)N[C@H](C(=O)N[C@@H](Cc1ccc(O)cc1)C(N)=O)[C@@H](C)O)[C@@H](C)O)[C@@H](C)O)[C@@H](C)O)[C@@H](C)O) [[N-terminal(C20 diacid), des1, 4G, 15Q, 21Q, 23Y, 30S, 31G, 32T, 33Y]mimylin] | 22 pM | 24 pM
{C20 diacid-γGlu}-ASGLSTAALGRLSEELHELQTYPRTETGSGTY-NH2 (SMILES CC(C)C[C@H](NC(=O)CNC(=O)[C@H](CO)NC(=O)[C@H](C)NC(=O)CC[C@H](NC(=O)CCCCCCCCCCCCCCCCCCC(=O)O)C(=O)O)C(=O)N[C@@H](CO)C(=O)N[C@H](C(=O)N[C@@H](C)C(=O)N[C@@H](C)C(=O)N[C@@H](CC(C)C)C(=O)NCC(=O)N[C@@H](CCCNC(=N)N)C(=O)N[C@@H](CC(C)C)C(=O)N[C@@H](CO)C(=O)N[C@@H](CCC(=O)O)C(=O)N[C@@H](CCC(=O)O)C(=O)N[C@@H](CC(C)C)C(=O)N[C@@H](Cc1c[nH]cn1)C(=O)N[C@@H](CCC(=O)O)C(=O)N[C@@H](CC(C)C)C(=O)N[C@@H](CCC(N)=O)C(=O)N[C@H](C(=O)N[C@@H](Cc1ccc(O)cc1)C(=O)N1CCC[C@H]1C(=O)N[C@@H](CCCNC(=N)N)C(=O)N[C@H](C(=O)N[C@@H](CCC(=O)O)C(=O)N[C@H](C(=O)NCC(=O)N[C@@H](CO)C(=O)NCC(=O)N[C@H](C(=O)N[C@@H](Cc1ccc(O)cc1)C(N)=O)[C@@H](C)O)[C@@H](C)O)[C@@H](C)O)[C@@H](C)O)[C@@H](C)O) [[N-terminal(C20 diacid-gGlu), des1, 4G, 15E, 21Q, 23Y, 30S, 31G, 32T, 33Y]mimylin] | 36 pM | 21 pM
{C20 diacid-γGlu}-EASQLSTAVLGRLSQELHELQTYPRTGTGSGTY-NH2 (SMILES CC(C)C[C@H](NC(=O)[C@H](CCCNC(=N)N)NC(=O)CNC(=O)[C@H](CC(C)C)NC(=O)[C@@H](NC(=O)[C@H](C)NC(=O)[C@@H](NC(=O)[C@H](CO)NC(=O)[C@H](CC(C)C)NC(=O)[C@H](CCC(N)=O)NC(=O)[C@H](CO)NC(=O)[C@H](C)NC(=O)[C@H](CCC(=O)O)NC(=O)CC[C@H](NC(=O)CCCCCCCCCCCCCCCCCCC(=O)O)C(=O)O)[C@@H](C)O)C(C)C)C(=O)N[C@@H](CO)C(=O)N[C@@H](CCC(N)=O)C(=O)N[C@@H](CCC(=O)O)C(=O)N[C@@H](CC(C)C)C(=O)N[C@@H](Cc1c[nH]cn1)C(=O)N[C@@H](CCC(=O)O)C(=O)N[C@@H](CC(C)C)C(=O)N[C@@H](CCC(N)=O)C(=O)N[C@H](C(=O)N[C@@H](Cc1ccc(O)cc1)C(=O)N1CCC[C@H]1C(=O)N[C@@H](CCCNC(=N)N)C(=O)N[C@H](C(=O)NCC(=O)N[C@H](C(=O)NCC(=O)N[C@@H](CO)C(=O)NCC(=O)N[C@H](C(=O)N[C@@H](Cc1ccc(O)cc1)C(N)=O)[C@@H](C)O)[C@@H](C)O)[C@@H](C)O)[C@@H](C)O) [[N-terminal(C20 diacid-gGlu), 4Q, 9V, 15Q, 21Q, 23Y, 27G, 30S, 31G, 32T, 33Y]mimylin] | 66 pM | 56 pM
{C20 diacid-γGlu}-ASQLSTAVLGRLSQELHELQTYPRTETGSQTY-NH2 (SMILES CC(C)C[C@H](NC(=O)[C@H](CCCNC(=N)N)NC(=O)CNC(=O)[C@H](CC(C)C)NC(=O)[C@@H](NC(=O)[C@H](C)NC(=O)[C@@H](NC(=O)[C@H](CO)NC(=O)[C@H](CC(C)C)NC(=O)[C@H](CCC(N)=O)NC(=O)[C@H](CO)NC(=O)[C@H](C)NC(=O)CC[C@H](NC(=O)CCCCCCCCCCCCCCCCCCC(=O)O)C(=O)O)[C@@H](C)O)C(C)C)C(=O)N[C@@H](CO)C(=O)N[C@@H](CCC(N)=O)C(=O)N[C@@H](CCC(=O)O)C(=O)N[C@@H](CC(C)C)C(=O)N[C@@H](Cc1c[nH]cn1)C(=O)N[C@@H](CCC(=O)O)C(=O)N[C@@H](CC(C)C)C(=O)N[C@@H](CCC(N)=O)C(=O)N[C@H](C(=O)N[C@@H](Cc1ccc(O)cc1)C(=O)N1CCC[C@H]1C(=O)N[C@@H](CCCNC(=N)N)C(=O)N[C@H](C(=O)N[C@@H](CCC(=O)O)C(=O)N[C@H](C(=O)NCC(=O)N[C@@H](CO)C(=O)N[C@@H](CCC(N)=O)C(=O)N[C@H](C(=O)N[C@@H](Cc1ccc(O)cc1)C(N)=O)[C@@H](C)O)[C@@H](C)O)[C@@H](C)O)[C@@H](C)O) [[N-terminal(C20 diacid-gGlu), des1, 4Q, 9V, 15Q, 21Q, 23Y, 30S, 31Q, 32T, 33Y]mimylin] | 62 pM | 63 pM

— US20160272683A1 (Novo Nordisk, published 2016)
